This is an account of results in patent US20260250421A1 (BIOCYTOGEN PHARMACEUTICALS BEIJING, published 2026).

Assay [1] has as its target T1, His-tagged human PTK7 protein (human, UniProt Q13308 31-704).
T1 construct: Bought protein; also called hPTK7-His; not shown: His tag
T1 sequence: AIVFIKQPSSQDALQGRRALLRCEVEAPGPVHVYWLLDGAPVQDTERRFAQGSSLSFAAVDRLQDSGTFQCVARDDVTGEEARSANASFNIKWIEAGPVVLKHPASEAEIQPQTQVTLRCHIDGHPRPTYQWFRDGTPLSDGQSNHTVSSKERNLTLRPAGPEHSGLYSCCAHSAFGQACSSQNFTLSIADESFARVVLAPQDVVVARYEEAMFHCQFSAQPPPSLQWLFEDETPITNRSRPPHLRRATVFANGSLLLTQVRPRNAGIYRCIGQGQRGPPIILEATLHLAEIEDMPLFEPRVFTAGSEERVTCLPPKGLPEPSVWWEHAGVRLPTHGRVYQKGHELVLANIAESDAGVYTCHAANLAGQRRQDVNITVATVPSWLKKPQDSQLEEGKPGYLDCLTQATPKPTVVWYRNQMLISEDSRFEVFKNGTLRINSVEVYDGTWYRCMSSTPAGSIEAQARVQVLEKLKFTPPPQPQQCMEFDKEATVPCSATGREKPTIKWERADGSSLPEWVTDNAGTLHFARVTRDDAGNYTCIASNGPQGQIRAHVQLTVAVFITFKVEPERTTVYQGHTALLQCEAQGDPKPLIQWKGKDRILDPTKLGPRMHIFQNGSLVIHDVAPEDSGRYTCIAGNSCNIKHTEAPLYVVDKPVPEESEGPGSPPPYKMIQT
Briefly: BLI Octet binning on hPTK7-His; competitor 1A7. The procedure: (§1) Relative positions of target protein epitope between a pair of purified anti-PTK7 antibodies were analyzed by Biolayer Interferometry (BLI) using ForteBio Octet system at 30° C. A total of […] purified antibodies were used: 1A7, 1A11, 1F2, 2A5, 2D11, 2F5, 3C4 and 3E6.
(§2) 1×HBS-EP+ buffer (10 mM 4-(2-hydroxyethyl)-1-piperazineethanesulfonic acid (HEPES), 150 mM NaCl, 3 mM ethylenediaminetetraacetic acid (EDTA) and 0.05% P20, pH7.4) diluted from HBS-EP+ buffer (10×) was used as the running buffer throughout the experiment. His-tagged human PTK7 protein was captured at a flow rate of 10 μL/min, and 200 nM of antibody (Analyte 1) was injected at a flow rate of 30 μL/min to bind the ligand. Another antibody (Analyte 2) was injected under the same conditions to determine whether the binding of different antibodies interfered with each other. The binding time was 300 s for each antibody.
(§3) The binding value of each antibody was obtained using Data Analysis HT 12.0. To quantify the interference of one antibody binding to another, a binding ratio was calculated to compare each pair of antibodies. The binding ratio is defined as the binding value of the second antibody (Analyte 2), divided by the binding value of the first antibody (Analyte 1). […] In general, antibody pairs that interfere with each other have the same or overlapping epitopes.

Assay [2] concerns the target T1, His-tagged human PTK7 protein. Briefly: BLI Octet binning on hPTK7-His; competitor 2F5. The procedure: as §1, §2, §3
On the technique in general: In BLI a coated tip is dipped into the sample, and binding shifts an interference pattern.

Assay [3] deals with T2, human PTK7 on human cancer cell lines (human, UniProt Q13308 31-1070).
T2 construct: Endogenous PTK7 of human tumour cell lines; also called PTK7 on A-431, NCI-H520, NCI-N87, SK-OV-3, BT-20, HCC1954, NCI-H226, NCI-H358, HCT116, PC-3, NCI-H292, NCI-H1975 cells
T2 sequence: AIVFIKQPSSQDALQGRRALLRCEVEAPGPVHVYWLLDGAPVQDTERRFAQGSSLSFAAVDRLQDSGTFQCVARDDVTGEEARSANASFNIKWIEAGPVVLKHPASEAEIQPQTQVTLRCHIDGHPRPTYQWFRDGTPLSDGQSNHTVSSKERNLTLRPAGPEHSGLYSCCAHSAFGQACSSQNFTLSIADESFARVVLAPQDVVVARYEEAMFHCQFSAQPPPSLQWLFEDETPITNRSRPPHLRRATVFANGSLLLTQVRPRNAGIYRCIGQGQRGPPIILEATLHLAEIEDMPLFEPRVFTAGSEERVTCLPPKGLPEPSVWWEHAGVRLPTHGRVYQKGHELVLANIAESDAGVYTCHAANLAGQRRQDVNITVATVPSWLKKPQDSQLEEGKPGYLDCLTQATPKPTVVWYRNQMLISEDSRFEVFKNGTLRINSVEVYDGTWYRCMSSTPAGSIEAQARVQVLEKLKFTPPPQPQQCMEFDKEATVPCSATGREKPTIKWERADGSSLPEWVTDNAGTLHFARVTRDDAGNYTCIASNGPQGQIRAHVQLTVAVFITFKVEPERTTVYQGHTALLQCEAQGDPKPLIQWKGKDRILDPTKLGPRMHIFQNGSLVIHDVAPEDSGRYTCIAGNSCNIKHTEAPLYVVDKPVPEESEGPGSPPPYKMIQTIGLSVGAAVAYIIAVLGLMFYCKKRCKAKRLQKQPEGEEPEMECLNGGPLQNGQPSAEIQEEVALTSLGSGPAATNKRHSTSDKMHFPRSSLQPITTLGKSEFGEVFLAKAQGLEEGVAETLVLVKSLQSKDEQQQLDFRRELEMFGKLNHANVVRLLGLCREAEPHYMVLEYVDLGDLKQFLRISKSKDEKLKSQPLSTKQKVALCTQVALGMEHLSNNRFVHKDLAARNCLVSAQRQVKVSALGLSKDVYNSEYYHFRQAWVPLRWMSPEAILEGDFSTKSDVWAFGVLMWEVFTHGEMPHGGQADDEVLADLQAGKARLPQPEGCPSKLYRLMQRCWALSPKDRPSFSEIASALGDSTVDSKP
Nature of the assay: flow cytometry, A-431 cells, Ab 5 ug/mL. The procedure: (§4) The binding activity of anti-PTK7 antibodies to cancer cell lines was verified by flow cytometry. […] Purified anti-PTK7 antibody with a concentration of 5 μg/mL was added to each well and was incubated at 4° C. for 30 minutes. […] The cells were collected, and the mean fluorescence intensity (MFI) was determined. Human IgG1 was used as ISO control.
Background: A flow cytometer gives signals particle by particle.

In assay [4] the target is T2, human PTK7 on human cancer cell lines. Briefly: flow cytometry, BT-20 cells, Ab 5 ug/mL. The procedure: as §4
In assay [5] the target is T1, His-tagged human PTK7 protein. Briefly: BLI Octet binning on hPTK7-His; competitor 2D11. The protocol: as §1, §2, §3
The target of assay [6] is T2, human PTK7 on human cancer cell lines. Nature of the assay: flow cytometry, NCI-H358 cells, Ab 5 ug/mL. The procedure: as §4
Assay [7] has the same target. Nature of the assay: flow cytometry, NCI-N87 cells, Ab 5 ug/mL. The procedure:
as §4

B1: 1A11 (antibody, V domains shown)
VH: QVQLVQSGPGLVKPSETLSLTCTVSGGSINSYYWNWIRQPPGKGLEWIGYIYYSGSTNYNPSLKSRVTISVDTSKNQFSLKLSSVTAADTAVYYCARDPHDYIRGHFDLWGRGTLFTVSS
VL: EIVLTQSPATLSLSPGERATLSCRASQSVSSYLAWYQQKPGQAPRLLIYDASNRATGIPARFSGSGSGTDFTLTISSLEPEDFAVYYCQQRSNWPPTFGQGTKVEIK
notes: also called anti-PTK7 antibody 1A11
Regarding B1, the figures for the binding ratio in assay [1], in assay [2] and in assay [5] were 0.71, 0.67 and 0.71, respectively. Further, the MFI in assay [3] was 247000; in assay [4], 136000; in assay [6], 89400; in assay [7], 158000.

B2: 3C4 (antibody, V domains shown)
VH: QVQLEQSRAEVKKPGESLRISCKGSGYSFTSYWISWVRQMPGKGLEWMGRIDPSDSYTNYNPSFQGHVTISADKSISTAYLQWSSLKASDTAMYYCARRDGSYFDFDYWGQGTLVTVSS
VL: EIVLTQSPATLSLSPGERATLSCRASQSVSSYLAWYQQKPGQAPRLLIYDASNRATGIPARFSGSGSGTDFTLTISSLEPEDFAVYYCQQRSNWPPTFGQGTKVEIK
notes: also called anti-PTK7 antibody 3C4
Regarding B2, the binding ratio in assay [1] stood at 0.87; in assay [2], 0.86; in assay [5], 0.91. Also, the MFI in assay [3] worked out at 186000; in assay [4], 148000; in assay [6], 98800; in assay [7], 139000.

B3: 3E6 (antibody, V domains shown)
VH: QVQLVESGAEVKKPGESLRISCRGSGYSFTSYWISWVRQMPGKGLEWMGRIDPSDSYTKYSPSFQGHVTISADKSISTAYLQWSSLKASDTAMYYCARRDGDYFDFDYWGQGTLVTVSS
VL: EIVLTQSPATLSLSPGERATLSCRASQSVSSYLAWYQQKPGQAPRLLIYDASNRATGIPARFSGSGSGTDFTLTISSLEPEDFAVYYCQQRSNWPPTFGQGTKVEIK
notes: also called anti-PTK7 antibody 3E6
With B3, the binding ratio worked out at 0.71 in assay [1], 0.71 in assay [2] and 0.76 in assay [5]. The MFI came out at 289000 in assay [3], 152000 in assay [4], 117000 in assay [6] and 180000 in assay [7].

B4: 1F2 (antibody, V domains shown)
VH: QVQLVQSGGGLVQPGGSLRLSCAASGFTFSRYEMNWVRQAPGKGLEWVSYINSIGSAINYADSVKGRFTISRDNAKNSLYLQMRSLRAEDTAVYYCVREDNWNPGYWGQGTLVTVSS
VL: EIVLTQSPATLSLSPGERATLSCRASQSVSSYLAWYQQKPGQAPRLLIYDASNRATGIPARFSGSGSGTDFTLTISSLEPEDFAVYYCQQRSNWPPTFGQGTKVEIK
notes: also called anti-PTK7 antibody 1F2
For B4, the binding ratio in assay [1] came out at 0.64; in assay [2], 0.56; in assay [5] it was 0.62. For the same molecule, the MFI in assay [3] came out at 156000; in assay [4], 50900; in assay [6], 33900; in assay [7] it was 108000.

B5: 1A7 (antibody, human IgG1, V domains shown)
VH: QVQLVESGGGVVQPGRSLRLSCAASGFTFSNYGMHWVRQAPGKGLEWVAVIYYDGSNKFYADSVKGRFTISRDNSKNTLYLQMSSLRAEDTAVYYCARDVAPPGSRAEYFHHWGQGTLVTVSS
VL: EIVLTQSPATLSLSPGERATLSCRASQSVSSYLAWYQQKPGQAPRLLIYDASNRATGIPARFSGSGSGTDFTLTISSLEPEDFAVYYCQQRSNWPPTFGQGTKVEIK
notes: also called anti-PTK7 antibody 1A7
For the molecule B5, the binding ratio in assay [1] came to 0.08; in assay [2], 0.07; in assay [5] it was 0.1. In addition, the MFI is 91100 in assay [3], 86200 in assay [4], 52900 in assay [6] and 75700 in assay [7].

B6: 2A5 (antibody, V domains shown)
VH: QVQLVQSGGGVVQPGRSLRLSCAASGFTFSNYGMHWVRQAPGKGLEWVAVIWYDGRNKYYADSVKGRFTISRDNSKNTLYLQMNSLRAEDTAVYYCARDVAPAGSRAEYFQNWGQGTLVTVSS
VL: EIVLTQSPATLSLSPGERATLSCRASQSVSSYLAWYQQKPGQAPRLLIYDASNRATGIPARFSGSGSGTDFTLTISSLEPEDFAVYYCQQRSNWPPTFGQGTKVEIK
notes: also called anti-PTK7 antibody 2A5
Regarding B6, the binding ratio in assay [1] was -0.02; in assay [2], -0.02; in assay [5], -0.07. Also, the MFI in assay [3] came out at 173000; in assay [4], 137000; in assay [6], 87700; in assay [7] it was 152000.

B7: 2F5 (antibody, V domains shown)
VH: QVQLVESGGGVVQPGRSLRLSCVASGFTFSNYGMHWVRQAPGKGLEWVAIIYYDGSNKYYADSVKGRFTISRDNSKNTLYLQMNSLRAEDTAVYYCARDVAAAGSRAEYLHHWGQGTLVTVSS
VL: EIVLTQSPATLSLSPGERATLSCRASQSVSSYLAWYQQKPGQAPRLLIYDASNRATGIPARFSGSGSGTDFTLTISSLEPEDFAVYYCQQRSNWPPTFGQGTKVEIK
notes: also called anti-PTK7 antibody 2F5
Turning to B7, the binding ratio in assay [1] amounted to 0.12; in assay [2], 0.08; in assay [5] it was 0.07. For the same molecule, the MFI in assay [3] came out at 106000; in assay [4], 83800; in assay [6], 51900; in assay [7], 69400.

B8: 2D11 (antibody, V domains shown)
VH: QVQLVESGGGVVQPGRSLRLSCAASGFTFSSYGMHWVRQAPGKGLEWVAVIFYDGSNKYYADSVKGRFTISRDNSKNTLYLQMNSLRAEDTSVYYCARDVAAPGSRAEYFQNWGQGTLVTVSS
VL: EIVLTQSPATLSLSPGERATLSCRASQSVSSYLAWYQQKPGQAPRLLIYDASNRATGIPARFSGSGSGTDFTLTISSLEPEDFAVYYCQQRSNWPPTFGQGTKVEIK
notes: also called anti-PTK7 antibody 2D11
Regarding B8, the binding ratio was determined as 0.17 in assay [1], 0.14 in assay [2] and 0.15 in assay [5]. The MFI in assay [3] is 295000; in assay [4] it was 172000; in assay [6], 103000; in assay [7], 217000.
